Data taken from patent US11851495 (Boehringer Ingelheim, dated 2023).

Biological target: T1, cadherin-17 (CDH17) (human, UniProt Q12864 23-832)
T1 construct: whole, on cells; not detected on HepG2 cells
Experiment: flow cytometry (FACS) on Colo-205 cells, antibody as primary reagent
Method: TRAILR2 and CDH17 protein surface expression on the Colo-205 cells was analyzed as follows. Cells were detached using Accutase (Sigma A6964) and washed twice with FACS buffer (PBS, Gibco 14190; 3% FCS, Gibco 26140; and 0.09% NaN_3, Sigma Aldrich S2002).
After seeding the cells, the plate was centrifuged at 1200 rpm for 5 minutes and the supernatant were discarded. Cells were then incubated for 60 min at 4° C. with 100p/well of the primary antibody appropriated dilution. Cells were washed twice with FACS buffer and 100p/well of the appropriated dilution of secondary/conjugated antibodies was added. Cells with secondary antibodies were incubated for 45 min at 4° C. in the dark. After two washes with FACS buffer, cells were resuspended in 100p FACS buffer per well and analyzed in a FACS Canto (BD Biosciences).
Example 12: Detection of CDH17 Surface Expression Using Newly Generated CDH17 Antibodies In FIG. 13 is shown how the newly generated anti-CDH17H2 antibody (comprising a VH of SEQ ID NO: 116 and a VL of SEQ ID NO: 117 and an IgG1 sequence of SEQ ID NO: 121) is able to detect CDH17 protein surface expression. FACS analysis was performed as described in Example 6. The newly generated anti-CDH17H2 antibody was used as primary antibody for detection, followed by a secondary antibody rabbit anti-mouse IgG PE (Dako, R0439). […]

B1: anti-CDH17H2 antibody (antibody, V domains shown)
VH: QVQLVQSGAEVKKPGSSVKVSCKVSGYTFTDHTIHWMKQRPGQGLEWIGYIYPRDVITQYNEKFKGKVTLTADKSTSTAYMELSSLRSEDTAVYLCARWGYFYGSRSYYFDYWGQGTTVTVSS
VL: DIQMTQSQSSLSASVGDRVGITCKASQNVGTAVAWYQQKPGKAPKLLIYSASNRYTGVPSRFSGSGSGTDFTLTISSLQPKDFATYFCQQYSSYPWTFGQGTKLEIK
notes: also called parental CDH17 antibody
**Q.** Does B1 bind?
**A.** Result: binds
